Measurements reported in paper PMC3575409, “Identification of a Novel Protein-Protein Interaction Motif Mediating Interaction of GPCR-Associated Sorting Proteins with G Protein-Coupled Receptors” (PLoS ONE, 2013).

Molecular target: full-length ADRB2 (β2 adrenergic receptor)
Test: SPR saturation binding, ADRB2
Design: species or system human
Method: The human ADRB2 and CNR2 receptors were produced using the P. pastoris expression system as previously described, [16]. After methanol-induced receptor expression, cells were washed with PBS pH 7.0 and resuspended in ice-cold buffer A (50 mM Tris-HCl pH 7.4, 500 mM NaCl, 10% glycerol, 5 mM EDTA, 1 mM PMSF, 2 mM DDT). Cells were then lysed with two cycles of 20 s shaking and 20 s cooling on ice using 0.5 mm glass beads in a FastPrep 24 device. Unbroken cells and cell debris were removed by centrifugation (3000 g, 5 min, 4°C) and the membrane fraction from the supernatant was pelleted by ultracentrifugation (100,000 g, 45 min, 4°C). […] Finally membranes were resuspended in buffer B and quantified with the bicinchoninic acid (BCA) method (Pierce).
Approximately 150 mg membrane proteins were extracted by 5 min incubation at room temperature in buffer C (50 mM Tris-HCl pH 7.4, 500 mM NaCl, 10% glycerol, 1 mM PMSF, 2 mM DTT, 50 mM imidazole, 1% (w/v) DDM, 0.1% (w/v) CHS). […] Imidazole was removed from the eluted fraction using a HiTrap 5 ml desalting column (GE Healthcare), purified proteins were quantified using the BCA assay (Pierce) and receptor integrity was analyzed by SDS-PAGE. […]

B1: central domain of GASP-1: central portion of GASP-1 (AA 380 to 1073) that contains 19 GASP motif (protein)
chain: MTKEEAKTKARARAKQEARSEEEALIGTWFWATDESSMADEASIESSLQVEDESIIGSWFWTEEEASMGTGASSKSRPRTDGERIGDSLFGAREKTSMKTGAEATSESILAADDEQVIIGSWFWAGEEVNQEAEEETIFGSWFWVIDAASVESGVGVSCESRTRSEEEEVIGPWFWSGEQVDIEAGIGEEARPGAEEETIFGSWFWAENQTYMDCRAETSCDTMQGAEEEEPIIGSWFWTRVEACVEGDVNSKSSLEDKEEAMIPCFGAKEEVSMKHGTGVRCRFMAGAEETNNKSCFWAEKEPCMYPAGGGSWKSRPEEEEDIVNSWFWSRKYTKPEAIIGSWLWATEESNIDGTGEKAKLLTEEETIINSWFWKEDEAISEATDREESRPEAEEGDIIGSWFWAGEEDRLEPAAETREEDRLAAEKEGIVGSWFGAREETIRREAGSCSKSSPKAEEEEVIIGSWFWEEEASPEAVAGVGFESKPGTEEEEITVGSWFWPEEEASIQAGSQAVEEMESETEEETIFGSWFWDGKEVSEEAGPCCVSKPEDDEEMIVESWFWSRDKAIKETGTVATCESKPENEEGAIVGSWFEAEDEVDNRTDNGSNCGSRTLADEDEAIVGSWFWAGDEAHFESNPSPVFRAICRSTCSVEQEPDPSRRPQSWEEVTVQFKPGPWGRVGFPSISPFRFPKE
modifications: left off: GST, N-terminal, kept
notes: central portion of GASP-1 (AA 380 to 1073) that contains 19 GASP motif
With B1 the “kinetics of the interaction” value was “very stable and had a slow association rate”.
